Patent publication US20090053196A1 (LUDWIG MAXIMILLIANS UNIVERSITAT MUNCHEN, published 2009)

How the values were obtained:
[1] = target: T1, FLAG-tagged UNC-45 (UNC-45^FLAG) (Caenorhabditis elegans); assay: GST pull-down, equimolar GST-UFD-2 or GST-CHN-1 with identical amounts of purified UNC-45
T1 construct: Purified as described in Barral 2002; also called ^FLAGUNC-45; purified UNC-45
Description: (B) In vitro binding of UNC-45 by UFD-2 or CHN-1. Equimolar amounts of GST-UFD-2 and GST-CHN-1 were incubated with the same amount of purified FLAG-tagged UNC-45 (UNC-45^FLAG) and pulled down with glutathione-Sepharose beads. GST alone with UNC-45^FLAG served as the negative control.
Binding of UNC-45^FLAG, ^mycCHN-1, ^mycCHN-1^ΔU-box, ^mycCHN-1^ΔTPR, ^mycCHN-1^Δ, ^mycUFD-2, ^mycUFD-2^{ΔU-box,} ^mycHSP-1 to GST-UFD-2 or GST-CHN-1 was done in buffer A [10 mM Tris pH 8, 10 mM DTT, Complete protease inhibitors (Boehringer)]+150 mM NaCl at 4° C. for 60 min. Glutathione-Sepharose beads were washed at least five times in buffer A with 0.1% Triton X-100 and 150 mM NaCl and bound proteins were eluted with SDS-PAGE sample buffer. […]
To compare their binding efficiencies, pull-down experiments were performed using equimolar amounts of GST-UFD-2 or GST-CHN-1 with identical amounts of purified UNC-45. […] Binary mixtures containing immobilized UFD-2 and either UNC-45 or CHN-1, and a ternary mixture containing all three proteins were set up and the resulting complexes analyzed by SDS-polyacrylamide gel electrophoresis. Approximately equimolar complexes were detected between UFD-2 and both CHN-1 and UNC-45 in the binary mixtures and among the three proteins in the ternary mixture. […]

[2] = target: T2, myc-tagged HSP-1 (^mycHSP-1) (Caenorhabditis elegans, UniProt P09446 1-640); assay: summary sentence of Example 5 on the earlier binding assays
T2 construct: Bacterially expressed from pET-^mycHSP-1; also called C. elegans Hsp70 homolog; Hsp70 ortholog HSP-1; not shown: N-terminal myc tag introduced 5' of the cDNA by PCR (pET21a)
Description: (§1) Binding of UNC-45^FLAG, ^mycCHN-1, ^mycCHN-1^ΔU-box, ^mycCHN-1^ΔTPR, ^mycCHN-1^Δ, ^mycUFD-2, ^mycUFD-2^{ΔU-box,} ^mycHSP-1 to GST-UFD-2 or GST-CHN-1 was done in buffer A [10 mM Tris pH 8, 10 mM DTT, Complete protease inhibitors (Boehringer)]+150 mM NaCl at 4° C. for 60 min. Glutathione-Sepharose beads were washed at least five times in buffer A with 0.1% Triton X-100 and 150 mM NaCl and bound proteins were eluted with SDS-PAGE sample buffer. Sonicated lysates from wild-type worms expressing the transgene P_unc-54::unc-45^FLAG were incubated with anti-FLAG M2-agarose beads (Sigma) in 50 mM Tris/HCl (pH 8.0), 100 mM NaCl, 10% glycerol, 1% Triton X-100 and 5 mM PMSF at 4° C. for 3 hours. Samples were precipitated with protein G-agarose beads (Amersham Pharmacia). Immunoprecipitates were washed at least five times in the same lysis buffer, were eluted with SDS-PAGE sample buffer and were separated by SDS gel electrophoresis followed by Western blotting using anti-FLAG M2 monoclonal antibodies (Sigma) or anti-Ubiquitin monoclonal antibodies (Chemicon).

GST = target: T3, GST (UniProt P08515 1-218 = GST); assay: GST pull-down with glutathione-Sepharose beads
T3 construct: Negative control of the pull-down experiments; also called GST alone; immobilized GST
Description: (C) Complex of CHN-1, UFD-2 and UNC-45. GST-UFD-2 was incubated with purified FLAG-tagged UNC-45 (UNC-45^FLAG) and myc-tagged CHN-1 (^mycCHN-1) together, ^mycCHN-1 or UNC-45^FLAG alone and pulled down with glutathione-Sepharose beads. GST alone with UNC-45^FLAG and ^mycCHN-1 served as the negative control.
as §1

T3 sequence (P08515 whole entry): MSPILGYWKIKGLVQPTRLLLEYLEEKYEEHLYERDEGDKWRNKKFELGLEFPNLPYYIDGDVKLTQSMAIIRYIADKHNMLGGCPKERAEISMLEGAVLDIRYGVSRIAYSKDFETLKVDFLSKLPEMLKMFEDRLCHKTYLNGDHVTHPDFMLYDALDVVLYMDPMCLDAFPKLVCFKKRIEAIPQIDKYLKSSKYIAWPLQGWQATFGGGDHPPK
T2 sequence (P09446 whole entry): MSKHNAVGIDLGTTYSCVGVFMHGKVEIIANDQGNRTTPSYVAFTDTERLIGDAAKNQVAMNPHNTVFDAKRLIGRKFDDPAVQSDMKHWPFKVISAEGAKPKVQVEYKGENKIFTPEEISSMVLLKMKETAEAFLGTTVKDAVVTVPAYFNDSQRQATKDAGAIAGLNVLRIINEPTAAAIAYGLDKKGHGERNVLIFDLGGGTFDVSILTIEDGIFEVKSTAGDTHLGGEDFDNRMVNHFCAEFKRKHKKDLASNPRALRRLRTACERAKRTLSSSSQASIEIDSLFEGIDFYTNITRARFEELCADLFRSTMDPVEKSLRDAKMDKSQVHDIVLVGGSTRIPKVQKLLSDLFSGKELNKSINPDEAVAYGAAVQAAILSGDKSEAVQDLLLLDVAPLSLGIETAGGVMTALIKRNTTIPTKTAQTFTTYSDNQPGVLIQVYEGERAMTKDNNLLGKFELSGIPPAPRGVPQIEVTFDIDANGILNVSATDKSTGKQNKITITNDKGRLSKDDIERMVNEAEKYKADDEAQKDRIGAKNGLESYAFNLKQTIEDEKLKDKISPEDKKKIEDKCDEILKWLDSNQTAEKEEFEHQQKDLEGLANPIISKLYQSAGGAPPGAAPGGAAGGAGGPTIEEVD

B1: GST-UFD-2 (enzyme, Caenorhabditis elegans, UniProt Q09349 1-984, looked up)
chain: MIEDEKAGLQPMDISDASVFFFQADVESKDFLTSLFDCEGKSDDRMLRYADAIIDVQNLNFDVSPQCLQSNIAEIITKFVLLSQDGSRRGLSRSFNFIDPDIIAGCREEDAIEFLLINFVRCHHELGKSGTSNCYKKTLESTRKAVFSVFVMIQRGYLESQLRSQHASLVFTKRLLEDTVSNVFLRTLVEYLASTDECDEDAITETFNPIFGILRSGIICQRFEDNKDEIVRQILRVMNLLLSIRLPSNGPRPLSNLLVNREDFLPTPSEKIQGREFGLMSFLGPFFSYGLESSARRPNHRVFVDCEEDARKYDGSVNTEQKLYFQRMDPIRTMLHQLMLPLASDQGSRNKTLRWIATIISTNDIRTRSHYDPSDVLCDHYMTNFLSVMYMFSEKIDLSKIIVDYPFLPSSLINISKETRLKMDESGAVAFASQFADRPDEYHFSTVCFFLTIAAQRLVIPPLMNQISEYSRHLKELKHKINALKEKLNTVSGFERAEVEKKLNYETEHWKLMSRHLLCVKTQAQDPALMASSMDFVDKQMKFILNLLCDNLDLLGDDSQLPTEVSQMFCALPEYFLEDALDFYIFAISNGMKLLMERNADWISRLTVLFTQYHYIKSPFLVSKLVRVLSSIQPPLWFNVVRLRMAQENLLMCMIKFYSDFEDNGDFYEKFNVRGNIQYMLEKMEEDMFYKGKFMDMARECGAEFIRFVNMVINDATWCIDESLSGLKSIHDVEKKMANKVEWDNTDQEIRNQDLGVYEEAKRKVKGWLGTAKSNLKLLLSITVNSPEPFRTPVLGERLAAMLNHNLSQLIGSKASELKVKDPRSYGWEPREFVSLLISIYLKLNMPAFVKYIAYDERTYSPEFFHNAIECMRKNSIVGFSQLESFEHLAEDVKKEYEAKAELEEEYDDVPEEFKDPIMDAIMVDPVKLPSGHVMDRAVIERHLLSTPNNPFNRAPLSHNELSPDSELKAKIQEWICQKRNSKK
notes: GST fusion from pGEX-UFD-2, purified from E. coli; also called immobilized GST-UFD-2; not shown: glutathione S-transferase (GST) encoded by vector pGEX4T1
Q: Which “fold more UNC-45 bound than by GST-CHN-1” value [1] does the source give for B1 here?
A: ~20 fold

B2: GST-CHN-1 (enzyme)
chain: MSSGAEQHNTNGKKCYMNKRYDDAVDHYSKAIKVNPLPKYYQNRAMCYFQLNNLKMTEEDCKRALELSPNEVKPLYFLGNVFLQSKKYSEAISCLSKALYHNAVITNAPDIENALKRARHQKYEEEESKRIVQDVEFHTYLESLIEKDRQENSENPEELQRADMAKKRLTELTLATQEKRQNREVPEMLCGKITLELMKEPVIVPSGITYDREEIVQHLRRIGHFDPVTRKPLTENEIIPNYALKEVIEKFLDDNPWAKYEPGGMV
notes: GST fusion from pGEX-CHN-1, purified from E. coli; also called GST-tagged version of CHN-1; not shown: glutathione S-transferase (GST) encoded by vector pGEX4T1
Q: Does B2 bind [2]?
A: binds

B3: myc-tagged CHN-1 (^mycCHN-1) (enzyme)
chain: B2 chain
notes: Full-length CHN-1, bacterially expressed from pET-^mycCHN-1; also called C. elegans CHIP ortholog; not shown: N-terminal myc tag introduced 5' of the cDNA by PCR (pET21a)
Q: Does B3 bind (GST)?
A: no binding
